In US10253344B2, “Recombinant production of steviol glycosides” (Conagen Inc., priority 2013, dated 2019):

B1: UGT76G1: recombinant UDP-glycosyltransferase from stevia (SEQ ID NO:11) (protein, listed as Stevia rebaudiana)
chain: MENKTETTVRRRRRIILFPVPFQGHINPILQLANVLYSKGFSITIFHTNFNKPKTSNYPHFTFRFILDNDPQDERISNLPTHGPLAGMRIPIINEHGADELRRELELLMLASEEDEEVSCLITDALWYFAQSVADSLNLRRLVLMTSSLFNFHAHVSLPQFDELGYLDPDDKTRLEEQASGFPMLKVKDIKSAYSNWQILKEILGKMIKQTKASSGVIWNSFKELEESELETVIREIPAPSFLIPLPKHLTASSSSLLDHDRTVFQWLDQQPPSSVLYVSFGSTSEVDEKDFLEIARGLVDSKQSFLWVVRPGFVKGSTWVEPLPDGFLGERGRIVKWVPQQEVLAHGAIGAFWTHSGWNSTLESVCEGVPMIFSDFGLDQPLNARYMSDVLKVGVYLENGWERGEIANAIRRVMVDEEGEYIRQNARVLKQKADVSLMKGGSSYESLESLVSYISSL
B2: HV1: recombinant UDP-glycosyltransferase polypeptide (SEQ ID NO:6) derived from Hordeum vulgare subsp. vulgare (protein)
chain: MDGNSSSSPLHVVICPWLALGHLLPCLDIAERLASRGHRVSFVSTPRNIARLPPLRPAVAPLVDFVALPLPHVDGLPEGAESTNDVPYDKFELHRKAFDGLAAPFSEFLRAACAEGAGSRPDWLIVDTFHHWAAAAAVENKVPCVMLLLGAATVIAGFARGVSEHAAAAVGKERPAAEAPSFETERRKLMTTQNASGMTVAERYFLTLMRSDLVAIRSCAEWEPESVAALTTLAGKPVVPLGLLPPSPEGGRGVSKEDAAVRWLDAQPAKSVVYVALGSEVPLRAEQVHELALGLELSGARFLWALRKPTDAPDAAVLPPGFEERTRGRGLVVTGWVPQIGVLAHGAVAAFLTHCGWNSTIEGLLFGHPLIMLPISSDQGPNARLMEGRKVGMQVPRDESDGSFRREDVAATVRAVAVEEDGRRVFTANAKKMQEIVADGACHERCIDGFIQQLRSYKA
modifications: Hordeum vulgare

Legend:
Assay type in all cases: biochemical
[1] = in vitro conversion of rebaudioside E to rebaudioside D by recombinant UGT76G1, with or without AtSUS1; conditions: with or without AtSUS1, 6 hours
Description: Codon optimized UGT76G1 cDNA was inserted in a bacterial expression vector, and the recombinant UGT76G1 protein was expressed and purified by affinity chromatography. The purified recombinant UGT76G1 polypeptide was analyzed by SDS-PAGE (molecular weight: 65.4 kD, FIG. 9). The rebaudioside E substrate was incubated with the recombinant UGT76G1, with or without AtSUS1, under conditions similar to those used in the Examples above. The products were analyzed by HPLC. […] Addition of recombinant AtSUS in the reaction enhanced the conversion efficiency in UGT-SUS coupling system.

[2] = enzymatic activity screening of candidate UGT polypeptides for 1,2-19-O-glucose glycosylation activity (in vitro reaction, HPLC); conditions: stevioside or Reb A as substrate, 30° C.
Description: (§1) The purified candidate UGT recombinant polypeptides were assayed for 1,2-19-O-glucose glycosylation activity by using stevioside or Reb A as the substrate (FIGS. 1A-1C). Typically, the recombinant polypeptide (10 μg) was tested in a 200 μl in vitro reaction system. The reaction system contains 50 mM potassium phosphate buffer, pH 7.2, 3 mM MgCl2, 1 mg/ml stevioside or rebaudioside A, 1 mM UDP-glucose. The reaction was performed at 30° C. and terminated by adding 200 μL 1-butanol. The samples were extracted three times with 200 μL 1-butanol. The pooled fraction was dried and dissolved in 70 μL 80% methanol for high-performance liquid chromatography (HPLC) analysis. Stevia extract (Blue California, Calif.), containing 95% stevioside, was used as stevioside substrate. Rebaudioside A (purity 99%) was also supplied by Blue California.
(§2) The UGT catalyzed glycosylation reaction was be coupled to a UDP-glucose generating reaction catalyzed by a sucrose synthase (such as AtSUS1 of SEQ ID NO:9). […] The purified recombinant AtSUS1 polypeptide was analyzed by SDS-PAGE (molecular weight: 106.3 kD, FIG. 7). […]
(§3) HPLC analysis was then performed using a Dionex UPLC ultimate 3000 system (Sunnyvale, Calif.), including a quaternary pump, a temperature controlled column compartment, an auto sampler and a UV absorbance detector. […]

[3] = in vitro conversion of rebaudioside A to rebaudioside D by recombinant HV1 polypeptide, with or without AtSUS1
Description: as §1, §2, §3

[4] = in vitro conversion of stevioside by recombinant HV1 polypeptide in UGT-SUS coupling reaction system
Description: as §1, with “Stevia extract (Blue California, Calif.), containing 95% stevioside, was used as stevioside substrate. Rebaudioside A (purity 99%) was also supplied by Blue California.” left out
as §2, §3
Accordingly, the catalytic activity of the recombinant HV1 polypeptide for steviol glycoside biosynthesis (e.g., production of rebaudioside D) was further determined in combination with UGT76G1. […] The products were analyzed by HPLC.

[5] = in vitro conversion of Reb E to Reb Z by recombinant HV1 polypeptide and AtSUS1; conditions: Reb E 0.5 mg/ml, HV1 20 μg and AtSUS1 20 μg, 24 hours
Description: An unexpected compound (“Reb Z”) having a HPLC retention time 6.68 minute (see, FIG. 4) that was distinctive from rebaudiosides D and E was produced. This compound represents a novel steviol glycoside, and is termed “rebaudioside Z” (“Reb Z”). To confirm the conversion of Reb E to Reb Z, Reb E substrate (0.5 mg/ml) was incubated with the recombinant HV1 polypeptide (20 μg) and AtSUS1 (20 μg) in a UGT-SUS coupling reaction system ([…]) under conditions similar to those used in the examples above.

Row | Molecule | 1,3-13-O-glucose glycosylation activity (Reb D from Reb E) [1] | 1,2-19-O-glucose glycosylation activity [2] | conversion of rebaudioside A to rebaudioside D ([3]; HV1 alone without AtSUS1, after 24 hours) | conversion of rebaudioside A to rebaudioside D ([3]; UGT-SUS coupling reaction system (with AtSUS1), 6-24 hours) | production of rebaudioside D from stevioside ([4]; HV1 10 μg in combination with UGT76G1 10 μg and AtSUS1 10 μg) | conversion of stevioside to rebaudioside E ([4]; coupled with AtSUS1, in vitro, 20 hours) | production of Reb Z from Reb E [5]
1 | B1 | showed a 1,3-13-O-glucose glycosylation activity | – | – | – | – | – | –
2 | B2 | – | showed a 1,2-19-O-glucose glycosylation activity | only partial rebaudioside A was converted | completely converted | rebaudioside D was produced | converted stevioside to rebaudioside E | Reb Z was produced
